# In patent US20150025225A1 (SHIONOGI, published 2015):
# T1: human EL[331-459]-mouse EL-C2 tag (human/mouse chimera, UniProt Q9WVG5 21-500 (mouse entry))
# T1 construct: used as heparin extract of transfected HEK293F cells; also called human-mouse chimera EL; Human-Mouse chimeric EL
# T1 chain: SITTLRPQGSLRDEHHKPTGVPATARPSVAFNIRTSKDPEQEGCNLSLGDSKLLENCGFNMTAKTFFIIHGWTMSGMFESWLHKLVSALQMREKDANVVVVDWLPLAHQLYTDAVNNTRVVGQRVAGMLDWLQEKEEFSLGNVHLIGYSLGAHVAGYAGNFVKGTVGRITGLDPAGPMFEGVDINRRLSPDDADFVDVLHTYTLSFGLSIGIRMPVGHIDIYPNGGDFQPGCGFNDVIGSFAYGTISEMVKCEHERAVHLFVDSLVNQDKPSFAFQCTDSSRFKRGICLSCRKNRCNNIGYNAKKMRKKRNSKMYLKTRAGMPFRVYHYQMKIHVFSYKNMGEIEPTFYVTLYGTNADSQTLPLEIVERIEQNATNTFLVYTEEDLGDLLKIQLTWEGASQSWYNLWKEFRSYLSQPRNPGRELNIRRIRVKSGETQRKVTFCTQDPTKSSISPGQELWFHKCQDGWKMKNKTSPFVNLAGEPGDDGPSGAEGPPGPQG
# T2: rabbit EL-C2 tag (rabbit)
# T2 construct: used as cell lysate or heparin extract; also called rabbit EL lysate; rabbit EL enzyme solution
# T2 chain: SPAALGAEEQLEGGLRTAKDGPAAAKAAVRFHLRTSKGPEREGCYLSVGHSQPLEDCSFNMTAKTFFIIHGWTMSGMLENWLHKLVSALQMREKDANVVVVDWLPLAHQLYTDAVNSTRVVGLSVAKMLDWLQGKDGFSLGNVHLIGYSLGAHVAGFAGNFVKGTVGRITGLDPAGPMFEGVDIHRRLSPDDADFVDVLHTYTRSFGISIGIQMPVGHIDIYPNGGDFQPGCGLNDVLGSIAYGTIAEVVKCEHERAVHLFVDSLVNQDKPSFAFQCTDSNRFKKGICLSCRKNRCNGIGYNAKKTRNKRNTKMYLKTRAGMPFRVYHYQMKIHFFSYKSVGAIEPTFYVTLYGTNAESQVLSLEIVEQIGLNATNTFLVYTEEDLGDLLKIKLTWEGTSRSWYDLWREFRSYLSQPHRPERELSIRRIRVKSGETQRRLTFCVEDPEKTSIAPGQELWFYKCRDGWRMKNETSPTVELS
# T3: human EL-411-459 fragment (human)
# T3 construct: Used as HEK293 lysate
# T3 chain: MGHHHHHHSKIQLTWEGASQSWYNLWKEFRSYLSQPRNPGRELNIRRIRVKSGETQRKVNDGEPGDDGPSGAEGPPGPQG
# T4: human EL-C2 tag (human, UniProt Q9Y5X9 21-500)
# T4 sequence: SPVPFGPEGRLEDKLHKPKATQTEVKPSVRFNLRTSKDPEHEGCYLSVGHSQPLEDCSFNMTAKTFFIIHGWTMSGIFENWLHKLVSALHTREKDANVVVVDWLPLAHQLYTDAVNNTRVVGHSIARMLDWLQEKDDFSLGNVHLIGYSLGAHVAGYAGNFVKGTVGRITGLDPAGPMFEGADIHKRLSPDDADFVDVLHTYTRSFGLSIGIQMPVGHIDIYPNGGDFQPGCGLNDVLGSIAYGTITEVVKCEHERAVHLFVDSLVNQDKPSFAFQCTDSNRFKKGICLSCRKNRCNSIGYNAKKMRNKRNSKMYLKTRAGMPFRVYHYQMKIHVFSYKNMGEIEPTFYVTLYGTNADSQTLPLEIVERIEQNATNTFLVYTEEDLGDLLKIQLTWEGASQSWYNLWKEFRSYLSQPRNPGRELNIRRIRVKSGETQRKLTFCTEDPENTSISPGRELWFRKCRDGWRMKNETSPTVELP
# T5: human EL-411-500 fragment (human)
# T5 construct: Used as HEK293 lysate
# T5 chain: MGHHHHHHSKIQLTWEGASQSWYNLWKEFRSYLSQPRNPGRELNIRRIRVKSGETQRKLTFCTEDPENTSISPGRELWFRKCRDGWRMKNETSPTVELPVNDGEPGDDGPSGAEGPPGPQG
# Columns and labels:
# [1] = molecular target: T1, human EL[331-459]-mouse EL-C2 tag; assay: ELISA-type titration, A450 against antibody concentration; protocol not described in the text
# rabbit EL-C2 tag = molecular target: T2, rabbit EL-C2 tag; assay: as above
# [2] = molecular target: T3, human EL-411-459 fragment; assay: sandwich ELISA with human EL fragment lysate, as Example 10
# human EL-C2 tag = molecular target: T4, human EL-C2 tag; assay: cell-based or functional assay
# [3] = molecular target: T3, human EL-411-459 fragment; assay: sandwich ELISA: 12B10 (5 ug/mL) captured on anti-mouse IgG-Fc plate, serial dilutions of fragment lysate, detection with biotin anti-C2-tag Fab and HRP-streptavidin, A450
# Experimental: (§1) Assay buffer containing 15 μl of 12B10 antibody (5 μg/mL) was added to immobilized plate of anti-mouse IgG-Fc antibody and incubated for 2 hr. […] After washing the wells three times with 90 μl of washing buffer, 15 μL of assay buffer containing biotin-labeled anti-C2-tag (Fab) antibody and HRP-labeled Streptavidin (Thermo scientific) were added to the wells and incubated at room temperature for 1 hr. After washing the wells three times with 90 μl of washing buffer, 15 μL of TMB+-Substrate-Chromogen (DAKO) was added and incubated at room temperature for 30 min. The reaction was stopped with adding 15 μL of 0.05M H₂SO₄ and then measured absorbance 450 nm.
# [4] = molecular target: T5, human EL-411-500 fragment; assay: as above
# Experimental: as §1
Binder,EC50 (read off the curve) [1],EC50 (read off the curve) (rabbit EL-C2 tag),binding result [2],IC50 of EL enzyme activity (NEFA release from HDL) (human EL-C2 tag),binding result [3],binding result [4]
"47B2 antibody (antibody, IgG2a, V domains shown) VH: QVALKESGPGILQPSQTLSLTCSFSGFSLSTSGMGVGWIRQPSGKGLEWLAHIWWHGNKYYSTGLKSRLTISKDTSNNQVFLKIASVDTADTATYYCARISAGYPLDYWGQGTSVTVSS VL: DIQMTQSPSSLSASLGGKVTITCKASQDINKYIVWYQHKPGKGPRLLIHYTSTLQPGFPSRFSGSGSGRDYSLSITNLEPEDIATYYCLQYDNLLWTFGGGTKLEIK",~10 ng/mL,~7 ng/mL,binds,,,
"12B10 antibody (antibody, IgG2a, V domains shown) VH: QVTLKESGPGILKPSQTLSLTCSFSGFSLSTSGMGVGWIRQPSGKGLEWLAHIWWNDEKYYNPSLKSQLTISKDTSRNQVFLKITSVDTADTATYYCARSYDGSPFPSWGQGTLVTVSA VL: DIQMTQSPSSLSASLGGKVTITCKASQDINKYIAWFQHKPGKGPRLLMAYPFTLQPGIPSRFSGNGSGRDYSFSISNLEPEDIATYYCLQYDNLLWTFGGGTRLEIK",,,,47 nM,binds,binds
